Data published in article PMC4011921 (mAbs, 2014).

Assays:
[1] = molecular target: cynomolgus IL-6 (cynomolgus, UniProt P79341); assay: SPR
[2] = molecular target: human IL-6 (Homo sapiens, UniProt P05231); assay: SPR
Sequence of human IL-6 (P05231 30-212): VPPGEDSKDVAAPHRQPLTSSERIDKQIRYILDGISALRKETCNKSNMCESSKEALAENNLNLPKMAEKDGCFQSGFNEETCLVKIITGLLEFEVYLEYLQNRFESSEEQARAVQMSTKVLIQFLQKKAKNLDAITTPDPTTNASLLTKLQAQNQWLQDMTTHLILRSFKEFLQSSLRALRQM

Sequence of cynomolgus IL-6 (P79341 28-212): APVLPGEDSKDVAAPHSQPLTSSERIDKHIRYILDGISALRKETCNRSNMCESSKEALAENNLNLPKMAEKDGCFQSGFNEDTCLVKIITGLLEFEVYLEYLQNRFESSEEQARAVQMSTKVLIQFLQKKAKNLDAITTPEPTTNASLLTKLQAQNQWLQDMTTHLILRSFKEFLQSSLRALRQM

B1: olokizumab (antibody, V domains shown)
VH: EVQLVESGGGLVQPGGSLRLSCAASGFNFNDYFMNWVRQAPGKGLEWVAQMRNKNYQYGTYYAESLEGRFTISRDDSKNSLYLQMNSLKTEDTAVYYCARESYYGFTSYWGQGTLVTVSS
VL: DIQMTQSPSSLSASVGDRVTITCQASQDIGISLSWYQQKPGKAPKLLIYNANNLADGVPSRFSGSGSGTDFTLTISSLQPEDFATYYCLQHNSAPYTFGQGTKLEIK
B1 was tested, and the binding result [1] was “binds” and the Kd [2] was 10 pM.
